Patent US20230071765A1, “COMPOSITIONS HAVING THIOREDOXIN ACTIVITY AND RELATED METHODS” (ORPRO THERAPEUTICS, INC., priority 2020, published 2023)

Experiments:
[1] = thiol pKa (acid-dissociation constant); type: physicochemical; conditions: verified experimentally, data not shown
Excerpt: The human CF airway surface liquid is approximately 0.8 pH units more acidic than that of unaffected individuals due to the loss of bicarbonate-mediated buffering of proton secretion (Garland A L, Walton W G, Coakley R D, et al., 2013, Molecular basis for pH-dependent mucosal dehydration in cystic fibrosis airways. PNAS 110:15973-8; Shah V S, Meyerholz D K, Tang X X, et al., 2016, Airway acidification initiates host defense abnormalities in cystic fibrosis mice, Science 351:503-7). This has consequences for the clinical use of reducing agents to treat condensed, abnormal mucus. […] Cys thiol pKa values range from pH 8.5 (cysteamine) to pH 9.5 (NAC). In marked contrast to these classical thiols, the structurally-stabilized pKa of the Trx active site Cys32 is two to three logs lower (pH 6.1-6.3), allowing high activity even at acidic CF airway pH (FIG. 2).

[2] = SEC-HPLC percent free monomer in solution; type: physicochemical
Method: Functional assays 1. Reduction state of ORP100S was quantified using DTNB which reacts with free SH groups resulting in a yellow color change at 412 nm. Fifty microliters of 2.5 mM rhTrx was added to a 96-well plate, followed by 175 microliters of sample buffer and 25 microliters of 6 mM DTNB. After reactions were initiated by the addition of DTNB, change in kinetic absorbance at 412 nm due to DTNB reduction was monitored spectrophotometrically at 30° C. ORP100S concentration was determined by A280 (Nanodrop) using the extinction coefficient of human Trx-1 (7,000). The actual concentrations of free sulfhydryl groups were calculated based on the absorbance at 412 nm and the extinction coefficient of DTNB (14,150) in order to determine the reduction state as percentage of free sulfhydryl. […] 2. Percent of free monomer ORP100S in solution was determined using SEC. Samples were analyzed on a BioBasic S-300 250×4.6 column (Thermo Scientific) run on an Agilent 1100 HPLC system. The SEC-HPLC mobile phase buffer consisted of 40 mM ammonium acetate (pH 5.5), 2 mM EDTA and 450 mM NaCl. Low pH minimized dimerization while the 450 mM NaCl concentration improved resolution. The flow rate was 0.35 mL/min and absorbance was monitored at 280 nm. The length of each run was 20 minutes. The ORP100S monomer percentage was determined by integration of the area under the peak of the monomeric fraction divided by the total area under the curve of the chromatogram. 3. Disulfide bond reduction activity of ORP100S was quantified by assaying the reduction state of a small protein (human insulin) which in its heterodimeric form contains two intermolecular and one intramolecular disulfide, all three of which are known to be suitable thioredoxin substrates. Insulin reduction has classically been used to quantify thioredoxin activity by absorbance change following addition of NADPH and TrxR (Holmgren A., 1979, Thioredoxin catalyzes the reduction of insulin disulfides by dithiothreitol and dihydrolipoamide, J Biol Chem 254:9627-32). Such an approach is not suitable for monothiol C35S thioredoxins ORP-100 and ORP100S due to 1) the lack of cycling resulting from stoichiometric covalent linkage to the disulfide bond substrate and 2) the inability of NADPH and TrxR to reduce Cys32 of the oxidized monothiol Trx active site. Consequently, a new assay was developed based on the use of reverse-phase (RP) HPLC to monitor the rate of conversion of disulfide-bonded insulin heterodimers to monomeric forms. The two chains of human insulin have a total of six Cys residues which form three disulfide bonds in its mature structure. When ORP100S in the reduced form is incubated with dimeric insulin it reacts with these disulfide bonds to disrupt them, simultaneously forming covalent linkages to the ORP100S Cys32. […] The ORP100S samples were incubated with 10 mg/mL insulin for various time points (0-90 min) and the reactions were stopped by addition of iodacetic acid (IA) and trifluoroacetic acid (TFA). Relative activity at each time point was determined from changes in the area under the insulin heterodimer peak following separation over RP-HPLC (Agilent 1100) using an Intrada WP-RP 50×3 (Imtakt) column. Buffer A was 0.1% TFA and Buffer B was 0.1% TFA in acetonitrile. The gradient was […] in 5 min followed by 30 to 60% B in 45 min, then 60 to 80% B for an additional 5 min. The flow rate was 0.2 mL/min and absorbance was measured at 280 nm. In order to evaluate the change in the intact insulin molecule a time 0 baseline was first established using 1 M IA and 0.1% TFA without the addition of ORP100S. The area under the intact insulin heterodimer peak was then determined and set as equivalent to 100%. After the reaction with ORP100S the area of the intact insulin peak (corresponding to retention time) was measured. The percent reduction in intact insulin was then calculated from the decrease in the area following reduction divided by the area at time 0 multiplied by 100.

[3] = 70 mg/mL in PBS, 25° C., red fraction removed
[4] = 80 mg/mL in PBS, 25° C., red fraction removed
[5] = 90 mg/mL in PBS, 25° C., red fraction removed
[6] = 100 mg/mL in PBS, 25° C., red fraction removed
[7] = 110 mg/mL in PBS, 25° C., red fraction removed

B1: ORP100S: thioredoxin with monothiol active site, Cys35 and non-active Cys 62, 69 and 73 substituted with serine (SEQ ID NO:29) (protein)
chain: MVKQIESKTAFQEALDAAGDKLVVVDFSATWCGPSKMIKPFFHSLSEKYSNVIFLEVDVDDSQDVASESEVKSMPTFQFFKKGQKVGEFSGANKEKLEATINELV
modifications: synthetic peptide motif
pKa compared to native Trx [1]: same pKa as native Trx | % monomer (232 hrs) [2, 3]: 93% | % monomer (Time 0) [2, 3]: 93% | % monomer (232 hrs) [2, 4]: 93% | % monomer (Time 0) [2, 4]: 94% | % monomer (232 hrs) [2, 5]: 92% | % monomer (Time 0) [2, 5]: 94% | % monomer (232 hrs) [2, 6]: 93% | % monomer (Time 0) [2, 6]: 95% | % monomer (232 hrs) [2, 7]: 92% | % monomer (Time 0) [2, 7]: 95% | SEC % monomer ([2]; Ox:Red 0:100 mixture): 89% | SEC % monomer ([2]; Ox:Red 25:75 mixture): 70% | SEC % monomer ([2]; Ox:Red 50:50 mixture): 52% | SEC % monomer ([2]; Ox:Red 75:25 mixture): 36% | SEC % monomer ([2]; Ox:Red 100:0 mixture): 22% | decrease in percent monomer ([2]; time 0 to 232 hours, 25° C., PBS, 70-110 mg/ml, red fraction removed): 2%
